Patent US20220054617A1, “SUBUNIT VACCINE CONSTRUCTS FOR FLAVIVIRUSES” (priority 2018, published 2022)
“Also recorded” adds a separate entry of the source.

Key:
[1] = tested on: DENV-2; experiment: Seroconversion, DENV-2-specific IgG titers; type: in vivo, rabbits; details: three immunization regimes of Table 8
Method: (§1) Pre-immune test-bleeds are first obtained from adult New Zealand White rabbits via venipuncture of the marginal vein of the ear on Day 1. The rabbits are immunized intramuscularly in the flank region with (a) 10 μg of antigen in 0.2 mL saline (n=4 for non-adjuvanted, antigen+saline control cohort), or (b) 10 μg of antigen plus 100 μg of adjuvant in 0.2 mL saline (n=4 for antigen+adjuvant test cohorts). An aqueous formulation for all adjuvants and antigens is ensured. Animals are immunized on Days 1, 15, and 28. A final test-bleed is performed via the marginal vein of the ear on Day 38. Sera may be banked at −80° C. for further analysis.
(§2) Rabbits (n=4/cohort) were immunized with 10 μg each antigen per dose as described in the Standardized Rabbit Model of Immunogenicity modified as shown in Table 8.

[2] = tested on: DENV-3; experiment: Seroconversion, DENV-3-specific IgG titers; type: in vivo, rabbits; details: three immunization regimes of Table 8
Method: as §1, §2

[3] = tested on: DENV-4; experiment: ADE / protection against DENV-4 by rabbit antisera (CPE/cell death, 4G2 immunostain); type: cell-based, dengue virus; details: in vitro challenge
[4] = target: T1, ZIKV antigen (Zika virus, UniProt Q32ZE1); experiment: Serological cross reactivity matrix (ELISA), ZIKV antigen; type: binding; details: Immune-2 rabbit sera
T1 construct: made in house; host or cells: E. coli BL21(DE3)-pRARE
From the text: (§3) FIG. 10B-FIG. 10C show exemplary results of a serological cross reactivity matrix. Immune-2 sera from rabbits immunized with the 6 antigens were screened by ELISA for homologous titers. Samples with highest titers were examined for immunoreactivity with all antigens. […] DENV-1 Ag is recognized by anti-DENV-3 and anti-ZIKV antisera. Conversely, anti-DENV-3 antisera recognizes ZIKV antigen. Anti-ZIKV antisera recognizes WNV antigen very strongly.

[5] = tested on: DENV-1; experiment: ADE / protection against DENV-1 by rabbit antisera (CPE/cell death, 4G2 immunostain); type: cell-based, dengue virus; details: in vitro challenge
[6] = target: T2, DENV-1 antigen (Dengue virus type 1, UniProt P17763, A649T/F617I/M577V/S619T/V660I); experiment: Serological cross reactivity matrix (ELISA), DENV-1 antigen; type: binding; details: Immune-2 rabbit sera
T2 construct: made in house; host or cells: E. coli BL21(DE3)-pRARE
From the text: as §3

T1 sequence (Q32ZE1 582-689, looked up, natural form): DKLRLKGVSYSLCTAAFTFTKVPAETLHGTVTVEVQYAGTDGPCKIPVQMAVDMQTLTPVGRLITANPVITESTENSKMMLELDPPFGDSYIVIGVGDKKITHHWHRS
T2 sequence (P17763 571-673, looked up, stated change not applied): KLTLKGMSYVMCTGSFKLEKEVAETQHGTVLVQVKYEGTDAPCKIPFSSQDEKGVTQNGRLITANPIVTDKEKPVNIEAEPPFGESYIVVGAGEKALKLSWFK

B1: SGp(L)-DENV-2: SGp(L) fusion of DENV-2 antigen, SEQ ID NO: 39 (protein)
chain: MHHHHHHSTSLAEAKVLANRELDKYGVSDYYKNLINNAKTVEGVKALIDEILAALPKGTQLKGMSYSMCTGKFKVVKEIAETQHGTIVVRVQYEGDGSPCKIPFEIMDLEKRHVLGRLITVNPIVTEKDSPVNIEAEPPFGDSYIIIGVEPGQLKLSWFKK
- seroconversion (DENV-2-specific IgG titers) [1]: equivalence between all three immunization regimes

B2: SGp(L)-DENV-3: SGp(L) fusion of DENV-3 antigen, SEQ ID NO: 40 (protein)
chain: MHHHHHHSTSLAEAKVLANRELDKYGVSDYYKNLINNAKTVEGVKALIDEILAALPKGTLKGMSYAMCTNTFVLKKEVSETQHGTILIKVEYKGEDAPCKIPFSTEDGQGKAHNGRLITANPVVTKKEEPVNIEAEPPFGESNIVIGIGDNALKINWYKK
- seroconversion (DENV-3-specific IgG titers) [2]: equivalence between all three immunization regimes

B3: DENV-3: DENV-3 E-glycoprotein subunit antigen, SEQ ID NO: 4 (protein)
chain: SNALKGMSYAMCTNTFVLKKEVSETQHGTILIKVEYKGEDAPCKIPFSTEDGQGKAHNGRLITANPVVTKKEEPVNIEAEPPFGESNIVIGIGDNALKINWYKK
modifications: Dengue virus 3
- protection / neutralization against DENV-4 (heterologous) [3]: neutralizes
- cross-reactivity of antisera with ZIKV antigen [4]: reciprocal cross-reactivity was evident; also recorded: recognizes
- protection / neutralization against DENV-1 (heterologous) [5]: neutralizes; also recorded: prominent heterologous protection
- cross-reactivity of antisera with DENV-1 antigen [6]: Significant cross-reactivity; also recorded: recognized
